In US7732209:
pKd: −log10 of the molar value.

Columns and labels:
Experiment in all cases: EMSA
[1] = target: T1, Mos-1 transposase (Tnp), rabbit reticulocyte TnT, phosphorylated (Drosophila mauritiana) (UniProt Q7JQ07); conditions: single Kd; Scatchard; 5 mM MgCl2, 20 mM Tris pH 9, ice
T1 sequence: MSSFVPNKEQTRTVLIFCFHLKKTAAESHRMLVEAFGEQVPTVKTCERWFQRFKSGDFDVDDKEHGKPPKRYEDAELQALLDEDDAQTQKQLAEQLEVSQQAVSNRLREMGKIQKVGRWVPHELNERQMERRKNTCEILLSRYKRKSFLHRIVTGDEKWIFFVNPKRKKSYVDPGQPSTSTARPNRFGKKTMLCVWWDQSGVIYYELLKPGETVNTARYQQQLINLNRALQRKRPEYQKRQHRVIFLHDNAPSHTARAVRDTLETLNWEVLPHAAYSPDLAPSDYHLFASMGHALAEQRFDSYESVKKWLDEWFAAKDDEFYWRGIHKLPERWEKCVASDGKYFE

[2] = target: T2, MBP-Tnp (Mos-1 transposase, phosphorylated, insect cells) (Drosophila mauritiana) (UniProt Q7JQ07); conditions: single Kd; Scatchard; 5 mM MgCl2, 20 mM Tris pH 9, ice
T2 sequence: T1 sequence

[3] = target: T3, Mos-1 mariner transposase (Tnp), produced in bacteria (Drosophila mauritiana) (UniProt Q7JQ07); conditions: CITED (publication submitted), cited from earlier work
T3 sequence: T1 sequence

[4] = target: T4, Mos-1 transposase in vitro translated, dephosphorylated with CIP (Drosophila mauritiana) (UniProt Q7JQ07); conditions: Scatchard, 5 mM MgCl2, 20 mM Tris pH 9, ice
T4 sequence: T1 sequence

[5] = target: T5, MBP-Tnp dephosphorylated with CIP (Drosophila mauritiana) (UniProt Q7JQ07); conditions: Scatchard, 5 mM MgCl2, 20 mM Tris pH 9, ice
T5 sequence: T1 sequence

Q: Which results are given for “Mos-1 ITR 3' (EcoRI/XbaI fragment of pBS(3'))”?
A: pKd [1]: 7.13; pKd [2]: 7.41; pKd ([3]; Kd1, specific ITR 3' binding, Scatchard): 9.22; pKd ([3]; Kd2, ITR bound as integration target): 8.00; pKd ([4]; Kd1, second Kd (Kd2) 15.5 nM): 8.89; pKd ([4]; Kd2 (second site)): 7.81; pKd ([5]; Kd1, second Kd (Kd2) 24.69 nM): 9.18; pKd ([5]; Kd2 (second site)): 7.61
